B1: TNFα antibody C7 (full-length antibody) (antibody, V domains shown)
VH: EVQLVESGGGLVQPGGSLRLSCAASGFIFSNHWMNWVRQAPGKGLEWIGEIRSKSINSATHYAESVKGRFIISRDDNKNSLYLEMNSLKTEDTAEYYCARNYYGSTYDYWGQGTLVTVS
VL: EIVLTQSPDFQSVTPKEKVTITCRASQFVGSSIHWYQQKPDQSPKLLIKYASESMSGVPSRFSGSGSGTDFTFTISSLEAEDAATYYCQQSHSWPFTFGPGTKVDIK
notes: Variable regions subcloned into a mammalian construct with infliximab constant region (IgG1 kappa)
B2: SEQ ID NO 155 (Fab, V domains shown)
VH: B1 VH with V5T, G26Q, F27S, I28T, I56S, N57Y, H61S
VL: B1 VL
notes: Fab, E. coli lysate
B3: SEQ ID NO 71 (Fab, V domains shown)
VH: EVQLTESGGGLVQPGGSLRLSCRASGSTFSNHWMNWVRQAPGKGLEWIGEIRSKSIYGATSYAESVKGRFIISRDGNKTSLTLEMNSLKTEDTAEYYCARNYYGSTPDYWGQGTLVTVS
VL: B1 VL
notes: Fab, E. coli lysate
B4: SEQ ID NO 187 (Fab, V domains shown)
VH: B3 VH with R23A, S27F, W33Y, I56S, K78G, S80D, T82Y, R100Q, P107Y
VL: B1 VL
notes: Fab, E. coli lysate
B5: SEQ ID NO 184 (Fab, V domains shown)
VH: B1 VH with G26Q, W33Y, D76G, K78G, N79T, S80D
VL: B1 VL
notes: Fab, E. coli lysate
B6: SEQ ID NO 180 (Fab, V domains shown)
VH: B1 VH with A23R, W33Y, I56S, N79T, Y82T, R100Q, Y107P
VL: B1 VL
notes: Fab, E. coli lysate
B7: SEQ ID NO 163 (Fab, V domains shown)
VH: B1 VH with G26Q, N57Y, N79T, S80D, Y82T, R100Q, Y107P
VL: B1 VL
notes: Fab, E. coli lysate
B8: SEQ ID NO 168 (Fab, V domains shown)
VH: B3 VH with R23A, G26Q, Y57N, T82Y
VL: B1 VL
notes: Fab, E. coli lysate
B9: SEQ ID NO 162 (Fab, V domains shown)
VH: B1 VH with G26Q, W33Y, I56S, N57Y, D76G, S80D, Y82T
VL: B1 VL
notes: Fab, E. coli lysate
B10: SEQ ID NO 166 (Fab, V domains shown)
VH: B1 VH with G26Q, W33Y, H61S, D76G, N79T, S80D
VL: B1 VL
notes: Fab, E. coli lysate
B11: SEQ ID NO 188 (Fab, V domains shown)
VH: B1 VH with W33Y, N57Y, S58G, H61S, S80D, R100Q
VL: B1 VL
notes: Fab, E. coli lysate
B12: SEQ ID NO 190 (Fab, V domains shown)
VH: B1 VH with A23R, H61S, D76G, N79T, S80D, Y82T
VL: B1 VL
notes: Fab, E. coli lysate
B13: SEQ ID NO 159 (Fab, V domains shown)
VH: B1 VH with N57Y, H61S, D76G, K78G, N79T, Y82T
VL: B1 VL
notes: Fab, E. coli lysate
B14: SEQ ID NO 174 (Fab, V domains shown)
VH: B3 VH with T5V, W33Y, I56S, G58S, G76D, S80D, R100Q
VL: B1 VL
notes: Fab, E. coli lysate
B15: SEQ ID NO 170 (Fab, V domains shown)
VH: B1 VH with F27S, I28T, K78G, N79T, R100Q
VL: B1 VL
notes: Fab, E. coli lysate
B16: SEQ ID NO 181 (Fab, V domains shown)
VH: B1 VH with I28T, I56S, N57Y, Y82T, R100Q, Y107P
VL: B1 VL
notes: Fab, E. coli lysate
B17: SEQ ID NO 182 (Fab, V domains shown)
VH: B3 VH with R23A, S27F, W33Y, G58S, S61H, K78G, S80D, T82Y, R100Q
VL: B1 VL
notes: Fab, E. coli lysate
B18: SEQ ID NO 178 (Fab, V domains shown)
VH: B1 VH with I28T, W33Y, N57Y, D76G, K78G, Y82T, Y107P
VL: B1 VL
notes: Fab, E. coli lysate
B19: SEQ ID NO 171 (Fab, V domains shown)
VH: B1 VH with G26Q, F27S, I28T, W33Y, N57Y, H61S, K78G, R100Q, Y107P
VL: B1 VL
notes: Fab, E. coli lysate
B20: SEQ ID NO 179 (Fab, V domains shown)
VH: B3 VH with R23A, G26Q, S27F, I56S, Y57N, S61H, G76D, K78G
VL: B1 VL
notes: Fab, E. coli lysate
B21: SEQ ID NO 167 (Fab, V domains shown)
VH: B1 VH with G26Q, I28T, I56S, N57Y, S58G, N79T, S80D, Y82T
VL: B1 VL
notes: Fab, E. coli lysate
B22: SEQ ID NO 175 (Fab, V domains shown)
VH: B1 VH with A23R, S58G, N79T, Y82T, R100Q
VL: B1 VL
notes: Fab, E. coli lysate
B23: SEQ ID NO 161 (Fab, V domains shown)
VH: B1 VH with V5T, A23R, N57Y, K78G, S80D, R100Q, Y107P
VL: B1 VL
notes: Fab, E. coli lysate
B24: SEQ ID NO 172 (Fab, V domains shown)
VH: B3 VH with R23A, S27F, S61H, T79N, S80D, R100Q
VL: B1 VL
notes: Fab, E. coli lysate
B25: SEQ ID NO 158 (Fab, V domains shown)
VH: B1 VH with A23R, G26Q, N57Y, S58G, S80D, Y107P
VL: B1 VL
notes: Fab, E. coli lysate
B26: SEQ ID NO 165 (Fab, V domains shown)
VH: B1 VH with G26Q, I28T, W33Y, I56S, N57Y, S58G, D76G, N79T, S80D, R100Q
VL: B1 VL
notes: Fab, E. coli lysate
B27: SEQ ID NO 169 (Fab, V domains shown)
VH: B1 VH with V5T, W33Y, S58G, H61S, K78G, S80D, Y82T, R100Q, Y107P
VL: B1 VL
notes: Fab, E. coli lysate
B28: SEQ ID NO 157 (Fab, V domains shown)
VH: B3 VH with T28I, G58S, G76D, K78G, R100Q
VL: B1 VL
notes: Fab, E. coli lysate
B29: SEQ ID NO 186 (Fab, V domains shown)
VH: B3 VH with R23A, W33Y, G58S, G76D, K78G, T79N
VL: B1 VL
notes: Fab, E. coli lysate
B30: SEQ ID NO 164 (Fab, V domains shown)
VH: B1 VH with V5T, F27S, W33Y, N57Y, D76G, K78G, N79T, S80D
VL: B1 VL
notes: Fab, E. coli lysate
B31: SEQ ID NO 189 (Fab, V domains shown)
VH: B3 VH with R23A, G26Q, S27F, G58S, S61H, G76D, K78G
VL: B1 VL
notes: Fab, E. coli lysate
B32: SEQ ID NO 156 (Fab, V domains shown)
VH: B1 VH with V5T, G26Q, F27S, I28T, H61S, S80D, Y82T
VL: B1 VL
notes: Fab, E. coli lysate
B33: SEQ ID NO 177 (Fab, V domains shown)
VH: B3 VH with R23A, G26Q, W33Y, I56S, Y57N, G76D, T79N, S80D, R100Q, P107Y
VL: B1 VL
notes: Fab, E. coli lysate

This is an account of results in patent US20070092518A1 (published 2007).

Where a chain is given by its changes, count along the chain named.

T1 sequence (P01375 77-233 limits assumed): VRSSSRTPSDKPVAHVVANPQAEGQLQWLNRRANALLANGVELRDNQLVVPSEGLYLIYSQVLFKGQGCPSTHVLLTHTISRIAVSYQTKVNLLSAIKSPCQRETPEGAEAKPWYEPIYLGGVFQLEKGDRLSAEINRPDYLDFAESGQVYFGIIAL

The first assay has as its target T1, human tumor necrosis factor-α (rHuTNF-alpha, Biosource) (human, UniProt P01375 77-233).
T1 construct: Bought recombinant protein coated on ELISA plates; The TNFα of the Biacore assay is not described further; also called TNFα; human TNFα
As to the kind of experiment: Biacore, against infliximab. (In SPR one partner is held on a chip, and binding of the other changes the refractive index at the surface.)
In the case of B1, the “fold higher binding affinity than infliximab” value is more than 2 fold.

A further assay concerns the target T1, human tumor necrosis factor-α …. As to the kind of experiment: Biacore.
What is called Kd is the equilibrium constant for the complex coming apart. A lower Kd goes with a tighter complex. B1 had a Kd of 0.07 nM.

A further assay has the same target. As to the kind of experiment: solid-phase ELISA, Fab lysate on coated rHuTNF-alpha. In a few lines: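 E. coli lysates expressing His-tagged Fab (pTrcHis2A) were incubated 2 h at RT on wells coated with 1 μg/ml rHuTNF-α and blocked with BSA. Bound Fab was detected with biotinylated anti-human kappa plus penta-His conjugates, then streptavidin-POD and TMB. Absorbance was read at 450 nm.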
In general terms: In an ELISA, binding on a coated surface is turned into a signal by an enzyme label.
For the molecule B2, the binding result is listed as “binds”.

For B3, the binding result is “binds”.

For B4, the binding result was “binds”.

As for B5, the binding result is reported as “binds”.

On to B6, for which the binding result was “binds”.

Turning to B7, the binding result was “binds”.

As to B8, the binding result is given as “binds”.

With B9, the binding result is “binds”.

B10: the binding result is listed as “binds”.

B11: the binding result is “binds”.

On to B12, for which the binding result is listed as “binds”.

As for B13, the binding result is “binds”.

In the case of B14, the binding result is on record as “binds”.

As for B15, the binding result is “binds”.

For B16, the binding result is reported as “binds”.

Consider B17, for which the binding result is reported as “binds”.

As to B18, the binding result is listed as “binds”.

For the molecule B19, the binding result was “binds”.

As to B20, the binding result is recorded as “binds”.

With B21, the binding result was “binds”.

In the case of B22, the binding result was “binds”.

As to B23, the binding result is “binds”.

Consider B24, for which the binding result is given as “binds”.

Regarding B25, the binding result is listed as “binds”.

B26: the binding result was “binds”.

For the molecule B27, the binding result is “binds”.

As to B28, the binding result was “binds”.

As for B29, the binding result is listed as “binds”.

B30: the binding result is on record as “binds”.

Regarding B31, the binding result is listed as “binds”.

As for B32, the binding result is “binds”.

For the molecule B33, the binding result is recorded as “binds”.
